Laboratory results reported in publication PMC11352979, “The mycobacterium lipid transporter MmpL3 is dimeric in detergent solution, SMALPs and reconstituted nanodiscs†” (RSC Chemical Biology, 2024).

Experiments:
[1] = target: T1, C-terminally truncated Mycobacterium smegmatis MmpL3 (ΔC Ms-MmpL3, aa 1–773) (M. smegmatis), A0QP27; experiment: native MS; LILBID-MS of the high sucrose percentage (HSP, 16-18% sucrose) fraction of POPC/MSP1E3D1 nanodiscs; 20 mM Tris HCl pH 8.0; negative mode; low and high laser energies; conditions: remark: other sources report otherwise
T1 chain: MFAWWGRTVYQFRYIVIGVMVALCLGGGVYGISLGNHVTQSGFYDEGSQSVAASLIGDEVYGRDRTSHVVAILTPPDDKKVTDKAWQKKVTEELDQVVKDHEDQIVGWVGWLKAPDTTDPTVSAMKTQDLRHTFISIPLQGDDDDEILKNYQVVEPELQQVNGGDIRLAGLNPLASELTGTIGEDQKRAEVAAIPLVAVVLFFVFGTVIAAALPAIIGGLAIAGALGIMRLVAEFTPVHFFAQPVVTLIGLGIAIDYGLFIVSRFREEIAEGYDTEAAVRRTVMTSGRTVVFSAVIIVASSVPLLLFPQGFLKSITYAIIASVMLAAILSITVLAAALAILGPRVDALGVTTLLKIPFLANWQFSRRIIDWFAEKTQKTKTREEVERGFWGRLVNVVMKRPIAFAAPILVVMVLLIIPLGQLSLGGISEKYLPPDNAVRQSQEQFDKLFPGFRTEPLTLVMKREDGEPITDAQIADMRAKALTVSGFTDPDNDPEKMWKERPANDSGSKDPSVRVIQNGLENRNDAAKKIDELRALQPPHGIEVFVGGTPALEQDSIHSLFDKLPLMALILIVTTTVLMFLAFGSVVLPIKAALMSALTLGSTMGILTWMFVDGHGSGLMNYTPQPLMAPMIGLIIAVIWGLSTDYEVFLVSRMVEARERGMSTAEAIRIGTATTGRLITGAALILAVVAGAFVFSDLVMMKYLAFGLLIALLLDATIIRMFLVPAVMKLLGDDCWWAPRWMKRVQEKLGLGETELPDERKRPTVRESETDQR

[2] = target: T1, C-terminally truncated Mycobacterium …; experiment: AUC; sedimentation velocity of the SEC peaks of protein in SMALPs; 0.1-0.5 mg/mL, 20 mM Tris HCl, 150 mM NaCl, pH 8.0, 20 °C; c(s) distribution; the mass includes lipid and polymer; conditions: remark: other sources report otherwise

stoichiometry N [1]: 2 | stoichiometry N [2]: 2
B1: C-terminally truncated Mycobacterium smegmatis MmpL3 (ΔC Ms-MmpL3, aa 1–773), A0QP27 1-773 (domain or fragment)
chain: MFAWWGRTVYQFRYIVIGVMVALCLGGGVYGISLGNHVTQSGFYDEGSQSVAASLIGDEVYGRDRTSHVVAILTPPDDKKVTDKAWQKKVTEELDQVVKDHEDQIVGWVGWLKAPDTTDPTVSAMKTQDLRHTFISIPLQGDDDDEILKNYQVVEPELQQVNGGDIRLAGLNPLASELTGTIGEDQKRAEVAAIPLVAVVLFFVFGTVIAAALPAIIGGLAIAGALGIMRLVAEFTPVHFFAQPVVTLIGLGIAIDYGLFIVSRFREEIAEGYDTEAAVRRTVMTSGRTVVFSAVIIVASSVPLLLFPQGFLKSITYAIIASVMLAAILSITVLAAALAILGPRVDALGVTTLLKIPFLANWQFSRRIIDWFAEKTQKTKTREEVERGFWGRLVNVVMKRPIAFAAPILVVMVLLIIPLGQLSLGGISEKYLPPDNAVRQSQEQFDKLFPGFRTEPLTLVMKREDGEPITDAQIADMRAKALTVSGFTDPDNDPEKMWKERPANDSGSKDPSVRVIQNGLENRNDAAKKIDELRALQPPHGIEVFVGGTPALEQDSIHSLFDKLPLMALILIVTTTVLMFLAFGSVVLPIKAALMSALTLGSTMGILTWMFVDGHGSGLMNYTPQPLMAPMIGLIIAVIWGLSTDYEVFLVSRMVEARERGMSTAEAIRIGTATTGRLITGAALILAVVAGAFVFSDLVMMKYLAFGLLIALLLDATIIRMFLVPAVMKLLGDDCWWAPRWMKRVQEKLGLGETELPDERKRPTVRESETDQR
